Measurements as given in patent US20260242478A1 (published 2026).
Where no end group is shown, it is not given here.

Tests used:
[1] = molecular target: T1, Anti-CD28 Fab (SEQ ID NOs: 696, 697); assay: clonal phage ELISA; biotinylated anti-CD28 Fab on neutravidin plate, bound phage detected with anti-M13 HRP
T1 construct: Biotinylated and captured on neutravidin coated plates in the phage ELISA
T1 sequence (VH, as listed by the source, chain 1 of 2): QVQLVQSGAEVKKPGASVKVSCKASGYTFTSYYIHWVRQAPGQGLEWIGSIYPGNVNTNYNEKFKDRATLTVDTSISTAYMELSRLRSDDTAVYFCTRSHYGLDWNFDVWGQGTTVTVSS
T1 sequence (VL, as listed by the source, chain 2 of 2): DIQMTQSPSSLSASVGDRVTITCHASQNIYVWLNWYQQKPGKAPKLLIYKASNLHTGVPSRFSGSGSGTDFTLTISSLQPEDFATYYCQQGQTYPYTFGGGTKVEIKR
Description: (§1) After panning, phage infected bacteria were plated out and colonies picked into 96 well blocks. Clonal phage was then amplified and separated from bacterial cells via centrifugation.
(§2) Clonal phage were harvested as crude supematants and screened via standard ELISAs. […] Prior to the addition of clonal phage, wells were incubated with blocking buffer and CD28 antigen or blocking buffer alone. Without washing or aspirating, clonal phage supematants were then added to the wells and incubated for a short time. Wells were then washed followed by detection of bound phage using a horse radish conjugated anti-M13 antibody. Clonal phage of interest were then sent for sequence analysis.

[2] = molecular target: T1, Anti-CD28 Fab (SEQ ID NOs: 696, 697); assay: clonal phage ELISA on captured anti-CD28 Fab; wells pre-incubated with CD28 antigen as competitor
Description: as §1, §2

[3] = molecular target: T2, Anti-CD28 Fab (SEQ ID NOs: 696, 697); assay: phage binding ELISA with the Fab-coated wells pre-incubated with CD28 antigen (competitor: CD28), anti-M13 HRP detection
T2 construct: In the phage ELISA the Fab was biotinylated and captured on neutravidin coated plates
T2 sequence (VH, as listed by the source, chain 1 of 2): as the sequence (VH, as listed by the source, chain 1 of 2) above
T2 sequence (VL, as listed by the source, chain 2 of 2): as the sequence (VL, as listed by the source, chain 2 of 2) above
Description: as §1, §2

[4] = molecular target: T2, Anti-CD28 Fab (SEQ ID NOs: 696, 697); assay: phage binding ELISA; biotinylated anti-CD28 Fab on neutravidin plate, clonal phage supernatant, anti-M13 HRP detection
[5] = molecular target: Anti-CD28 Fab (SEQ ID NOs: 696, 697); assay: phage binding ELISA; biotinylated anti-CD28 Fab on neutravidin plate, clonal phage supernatant, anti-M13 HRP;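 also: crude clonal phage supernatants screened after wells were preincubated either with CD28 antigen in blocking buffer or with blocking buffer only, phage added without washing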
Target sequence in this assay (VH, as listed by the source, chain 1 of 2): as the sequence (VH, as listed by the source, chain 1 of 2) above
Target sequence in this assay (VL, as listed by the source, chain 2 of 2): as the sequence (VL, as listed by the source, chain 2 of 2) above
Description: as §1, §2

[6] = molecular target: Anti-CD28 Fab (SEQ ID NOs: 696, 697); assay: phage binding ELISA on captured anti-CD28 Fab; competitor CD28 antigen pre-incubated in the wells
Target sequence in this assay (VH, as listed by the source, chain 1 of 2): as the sequence (VH, as listed by the source, chain 1 of 2) above
Target sequence in this assay (VL, as listed by the source, chain 2 of 2): as the sequence (VL, as listed by the source, chain 2 of 2) above
Description: as §1, §2

[7] = molecular target: T3, Anti-CD28 Fab (SEQ ID NOs: 696, 697); assay: phage ELISA on captured anti-CD28 Fab, wells first incubated with CD28 antigen (competitor)
T3 construct: Biotinylated and captured on neutravidin coated plates in the phage ELISA
T3 sequence (VH, as listed by the source, chain 1 of 2): as the sequence (VH, as listed by the source, chain 1 of 2) above
T3 sequence (VL, as listed by the source, chain 2 of 2): as the sequence (VL, as listed by the source, chain 2 of 2) above
Description: as §1, §2

[8] = molecular target: T3, Anti-CD28 Fab (SEQ ID NOs: 696, 697); assay: phage ELISA, clonal phage on biotinylated anti-CD28 Fab captured on neutravidin, anti-M13-HRP detection
Description: as §1, §2

Binder	Anti-CD28 Fab signal in the presence of CD28 (phage binding ELISA) [3]	Anti-CD28 Fab signal (phage binding ELISA) [4]	Anti-CD28 Fab (SEQ ID NOs: 696, 697) signal [5]	Anti-CD28 Fab signal in the presence of CD28 [6]	further results
YCDGHAMEYMEKCL [Phage-1182]					Phage binding ELISA, Anti-CD28 Fab signal [1]: 1.11; Phage binding ELISA, Anti-CD28 Fab signal in the presence of CD28 [2]: 0.08
YCDGHLPDYMAKCL [Phage-1161]	0.07	1.17			
YCEGHSSLYLEKCL (cysteine pairing not given here; also: displayed on phage by fusion to pIII, linker and pIII sequence not given here, Clonal phage of the Peptide-87 library; not shown: fused to the pIII filament of the bacteriophage) [Phage-1181]			1.11	0.08	
YCEGHVAEYRAKCL (cysteine pairing not given here; also: displayed on phage by fusion to pIII, linker and pIII sequence not given here, Clonal phage of the Peptide-87 library; not shown: fused to the pIII filament of the bacteriophage) [Phage-1169]			1.15	0.09	
YCDGHLSVYMSKCL [Phage-1167]	0.07	1.15			
YCAGHLDIYLAKCL [Phage-1151]					Anti-CD28 Fab signal in the presence of CD28 (phage binding ELISA) [7]: 0.07; Anti-CD28 Fab signal (phage binding ELISA) [8]: 1.21
YCEGHLKEYMQKCL [Phage-1163]	0.07	1.17			
YCAGHAPEYISKCL [Phage-1152]					Anti-CD28 Fab signal in the presence of CD28 (phage binding ELISA) [7]: 0.07; Anti-CD28 Fab signal (phage binding ELISA) [8]: 1.21
YCEGHMPEYLAKCL [Phage-1156]	0.07	1.18			
YCEGHAAEYLWKCL [Phage-1154]					Anti-CD28 Fab signal in the presence of CD28 (phage binding ELISA) [7]: 0.09; Anti-CD28 Fab signal (phage binding ELISA) [8]: 1.18
YCAGHLPQYMHKCL (cysteine pairing not given here; also: displayed on phage by fusion to pIII, linker and pIII sequence not given here, Clonal phage of the Peptide-87 library; not shown: fused to the pIII filament of the bacteriophage) [Phage-1179]			1.11	0.08	
YCEGHLPQYMSKCL [Phage-1168]	0.09	1.15			
YCAGHSSEYIGKCL [Phage-1159]	0.06	1.17			
YCDGHSWIYMVKCL [Phage-1166]	0.06	1.16			
YCDGHEAEYMWKCL (cysteine pairing not given here; also: displayed on phage by fusion to pIII, linker and pIII sequence not given here, Clonal phage of the Peptide-87 library; not shown: fused to the pIII filament of the bacteriophage) [Phage-1176]			1.13	0.1	
YCDGHIWPWIEKCL (cysteine pairing not given here; also: displayed on phage by fusion to pIII, linker and pIII sequence not given here, Clonal phage of the Peptide-87 library; not shown: fused to the pIII filament of the bacteriophage) [Phage-1180]			1.11	0.11	
YCVGHSEQYMAKCL (cysteine pairing not given here; also: displayed on phage by fusion to pIII, linker and pIII sequence not given here, Clonal phage of the Peptide-87 library; not shown: fused to the pIII filament of the bacteriophage) [Phage-1175]			1.13	0.06	

Binder	Anti-CD28 Fab signal in the presence of CD28 (phage binding ELISA) [3]	Anti-CD28 Fab signal (phage binding ELISA) [4]	Anti-CD28 Fab (SEQ ID NOs: 696, 697) signal [5]	Anti-CD28 Fab signal in the presence of CD28 [6]	further results
YCDGHSWEYLGKCL [Phage-1153]					Anti-CD28 Fab signal in the presence of CD28 (phage binding ELISA) [7]: 0.05; Anti-CD28 Fab signal (phage binding ELISA) [8]: 1.2
YCEGHRAEYMSKCL [Phage-1165]	0.09	1.16			
YCDGHVVEYMSKCL (cysteine pairing not given here; also: displayed on phage by fusion to pIII, linker and pIII sequence not given here, Clonal phage of the Peptide-87 library; not shown: fused to the pIII filament of the bacteriophage) [Phage-1178]			1.12	0.08	
YCEGHSQTYMWKCL [Phage-1158]	0.08	1.17			
YCEGHSQQYMWKCL [Phage-1160]	0.05	1.17			
YCHGHLPQYMSKCM [Phage-1150]					Anti-CD28 Fab signal in the presence of CD28 (phage binding ELISA) [7]: 0.06; Anti-CD28 Fab signal (phage binding ELISA) [8]: 1.21
YCEGHAEQYMKKCL (cysteine pairing not given here; also: displayed on phage by fusion to pIII, linker and pIII sequence not given here, Clonal phage of the Peptide-87 library; not shown: fused to the pIII filament of the bacteriophage) [Phage-1177]			1.12	0.07	
YCDGHRPEYMSKCL [Phage-1155]					Anti-CD28 Fab signal in the presence of CD28 (phage binding ELISA) [7]: 0.07; Anti-CD28 Fab signal (phage binding ELISA) [8]: 1.18
YCEGHAEQYMEKCL [Phage-1162]	0.08	1.17			
YCEGHAAAYMGKCL (cysteine pairing not given here; also: displayed on phage by fusion to pIII, linker and pIII sequence not given here, Clonal phage of the Peptide-87 library; not shown: fused to the pIII filament of the bacteriophage) [Phage-1171]			1.14	0.08	
YCEGHAGVYMAKCL [Phage-1157]	0.05	1.17			
YCDGHSQEYMSKCL [Phage-1149]					Anti-CD28 Fab signal in the presence of CD28 (phage binding ELISA) [7]: 0.06; Anti-CD28 Fab signal (phage binding ELISA) [8]: 1.21
YCDGHLQMYMMKCL (cysteine pairing not given here; also: displayed on phage by fusion to pIII, linker and pIII sequence not given here, Clonal phage of the Peptide-87 library; not shown: fused to the pIII filament of the bacteriophage) [Phage-1173]			1.14	0.07	
YCDGHEQQYMEKCL (cysteine pairing not given here; also: displayed on phage by fusion to pIII, linker and pIII sequence not given here, Clonal phage of the Peptide-87 library; not shown: fused to the pIII filament of the bacteriophage) [Phage-1172]			1.14	0.06	
YCEGHLYEYMWKCL (cysteine pairing not given here; also: displayed on phage by fusion to pIII, linker and pIII sequence not given here, Clonal phage of the Peptide-87 library; not shown: fused to the pIII filament of the bacteriophage) [Phage-1174]			1.13	0.07	
YCEGHSYQYMQKCL [Phage-1164]	0.06	1.16			
YCQGHLPQYIEKCL (cysteine pairing not given here; also: displayed on phage by fusion to pIII, linker and pIII sequence not given here, Clonal phage of the Peptide-87 library; not shown: fused to the pIII filament of the bacteriophage) [Phage-1170]			1.14	0.06	
